Source: paper PMC12248463, “Humanized scFv Molecule Specific to an Extracellular Epitope of P2X4R as Therapy for Chronic Pain Management” (Cells, 2025)

B1: humanized P2X4R scFv HC3-LC3 (lead) (scFv, V domains shown)
VH: EVQLVESGGGLVQPGGSLRLSCATSGFTFTDYYMHWVRQAPGKGLEWVGFIRNKANGYTTEYSASVKGRFTISRDNSKNTLYLQMNSLRAEDTAVYYCARWEGDLLYAMDYWGQGTLVTVSS
VL: DIQMTQSPSSLSASVGDRVTITCRASQGISNYLNWYQQKPGKAPKLLIYYTSSLHSGVPSRFSGSGSGTDFTLTISSLQPEDFAYYYCQQYSKLPWTFGGGTKVEIK
notes: humanized VH hscFv95.HC3 (CDRs of murine mscFv95 grafted on a human framework); 15-amino-acid linker, printed as (G4S)3; humanized VL hscFv95.LC3, as the VL of m3; Cloned NcoI/NotI into a pET32a-His vector; Captured on HIS1K penta-His sensors in the Octet assay; also called hscFv HC3-LC3; P2X4R hscFv; source: E. coli Rosetta-gami (DE3), purified (HisTrap, SEC)
B2: humanized P2X4R scFv HC2-LC3 (scFv, V domains shown)
VH: QVQLQESGPGLVKPSQTLSLTCTTSGFTFTDYYMSWVRQAPGKGLEWIGFIRNKANGYTTEYSASVKGRFTISRDNSKNQFSLRLSSVTAADTAVYYCARWEGDLLYAMDYWGQGTTVTVSS
VL: B1 VL
notes: humanized VH hscFv95.HC2, as the VH of m2; 15-amino-acid linker, printed as (G4S)3; humanized VL hscFv95.LC3 (CDRs of murine mscFv95 grafted on a human framework); Cloned NcoI/NotI into a pET32a-His vector; also called hscFv95.HC2 + hscFv95.LC3; source: E. coli Rosetta-gami (DE3), purified (HisTrap, SEC)
B3: humanized P2X4R scFv HC3-LC1 (scFv, V domains shown)
VH: B1 VH
VL: DIQMTQTTSSLSASLGDRVTISCSASQGISNYLNWYQQKPDGTVKLLIYYTSSLHSGVPSRFSGSGSGTDYSLTISNLEQEDIATYYCQQYSKLPWTFGGGTKLEIK
notes: humanized VH hscFv95.HC3, as the VH of m4; 15-amino-acid linker, printed as (G4S)3; humanized VL hscFv95.LC1, as the VL of m1; Cloned NcoI/NotI into a pET32a-His vector; also called hscFv95.HC3 + hscFv95.LC1; source: E. coli Rosetta-gami (DE3), purified (HisTrap, SEC)
B4: humanized P2X4R scFv HC1-LC1 (scFv, V domains shown)
VH: EVKLVESGGGLVQPGGSLRLSCATSGFTFTDYYMSWVRQPPGKALEWLGFIRNKANGYTTEYSASVKGRFTISRDNSQSILYLQMNTLRAEDSATYYCARWEGDLLYAMDYWGQGTSVTVSS
VL: B3 VL
notes: humanized VH hscFv95.HC1 (CDRs of murine mscFv95 grafted on a human framework); 15-amino-acid linker, printed as (G4S)3; humanized VL hscFv95.LC1 (CDRs of murine mscFv95 grafted on a human framework); Cloned NcoI/NotI into a pET32a-His vector; also called hscFv95.HC1 + hscFv95.LC1; source: E. coli Rosetta-gami (DE3), purified (HisTrap, SEC)
B5: humanized P2X4R scFv HC2-LC1 (scFv, V domains shown)
VH: B2 VH
VL: B3 VL
notes: humanized VH hscFv95.HC2 (CDRs of murine mscFv95 grafted on a human framework); 15-amino-acid linker, printed as (G4S)3; humanized VL hscFv95.LC1, as the VL of m1; Cloned NcoI/NotI into a pET32a-His vector; also called hscFv95.HC2 + hscFv95.LC1; source: E. coli Rosetta-gami (DE3), purified (HisTrap, SEC)

Target: T1, human P2X4R peptide (extracellular 13-amino-acid peptide fragment of human P2X4R) (Homo sapiens, UniProt Q99571, biotinylated (position not given) where immobilised as ligand)
T1 construct: P2X purinoceptor 4, human; extracellular 13-amino-acid peptide fragment, the counterpart of rat residues 301-313 (11/13 residues identical to the rat peptide); also called human P2X4 peptide; source: synthetic peptide (GenScript)
T1 chain: RDLAGNEQRTLIK
Experiment: ELISA; indirect ELISA, purified hscFvs on human P2X4 peptide, triplicate wells (Figure 3B)
Conditions: both partners purified

| Binder | Kd [nM] |
| --- | --- |
| B1 | 2.3 |
| B2 | 29 |
| B3 | 4.7 |
| B4 | 24 |
| B5 | 12 |

Target: T1, human P2X4R peptide (extracellular …)
Experiment: BLI; Octet RED384; hscFv (5 ug/mL) captured on HIS1K penta-His sensors; peptide in 7 three-fold dilutions, 1.03-250 nM; 1X KB (PBS pH 7.4, 0.02% Tween-20, 0.1% albumin, 0.05% sodium azide); association 240 s, dissociation 420 s; global 1:1 fit
Conditions: both partners purified

| Binder | Kd [nM] |
| --- | --- |
| B1 | 2.5 |
